Antigen dilution data for one substance are collected here from US20150125849A1.

Test [1] has as its target GFP with His-tag at the C-extreme (pETsa-GFP-his) [GFP: P42212]. In words: detection of diluted antigen with 5 µg purified IgG (data not shown).
Test [2] addresses GFP with His-tag at the N-extreme (pETsa-his-GFP) [GFP: P42212]. The description is as above.

For the substance “His-tag MAb (Invitrogen, Carlsbad, USA) (antibody)”, the antigen dilution at which detected in test [1] and in test [2] was 32 × dilution throughout.
